Laboratory results published in PMC8063088.

What was measured:
[1] = biological target: NET1_(ΔNTR) 'Interface-1' mutant (F55R), made with an N-terminal His6-SUMO tag (human) (UniProt O95631); experiment: AUC; sedimentation velocity, 20 °C; binary NEO1_(FN456)-NET1_(ΔNTR) complexes (NET1 wild type at different concentrations, or Interface-1/-2 mutants) mixed equimolar, 10 mM HEPES pH 7.5, 150 mM NaCl, 2 mM CaCl2
[2] = biological target: NET1_(ΔNTR) 'Interface-2' mutant (Q443N/R445T), made with an N-terminal His6-SUMO tag (human) (UniProt O95631); experiment: as above
[3] = biological target: NET1_(ΔNTR)^F55R with C-terminal biotinylated Avi-tag (SPR ligand) (human) (UniProt O95631); experiment: SPR; NEO1/DCC:NET1 binding site analysis; biotinylated NET1_(ΔNTR) wild type, Interface-1 and Interface-2 mutants captured at 1007, 1027 and 937 RU; analytes NEO1 and DCC FN456 and FN56, two-fold series from 50 μM; equilibrium, one-site model; 25 °C, 10 mM HEPES pH 7.5, 150 mM NaCl, 0.05% polysorbate-20, 1 mg/ml BSA
[4] = biological target: NET1_(ΔNTR)^Q443N/R445T with C-terminal biotinylated Avi-tag (SPR ligand) (human) (UniProt O95631); experiment: as above
[5] = biological target: 1D4-tagged NET1_(ΔNTR) (UniProt O95631); experiment: proximity ligation assay (PLA); conditions: COS-7 cells co-transfected with NEO1-mVenus and full-length RGMB, incubated with NET1ΔNTR; p = 0.0107; parent: est. 59; read off a plot

stoichiometry N [1] | stoichiometry N [2] | fold lower affinity than wild-type NET1 (ΔNTR) [3] | fold reduction of binding against wild-type NET1 (ΔNTR) [4] | response (No. of PLA foci) [5] | Substance
1 NET1:NEO1 | 1 NET1:NEO1 | 10 fold | 2 fold |  | NEO1 FN type III domains 4 to 6 (NEO1_(FN456)) (domain or fragment)
 |  |  |  | 22 | full-length GPI-anchored RGMB (RGMBFL), N-terminal FLAG (from UniProt Q6NW40) A186R
